The assay deals with PS2 S-layer protein of Corynebacterium glutamicum 541 (ATCC-13058) (Corynebacterium glutamicum 541 (ATCC-13058)). The assay can be described thus: cryo-EM structure; single particle cryo-EM of S-layer sheets purified from cells with SDS; 50 mM HEPES/NaOH pH 7.5, 150 mM NaCl, 1 mM MgCl2, 2 mM CaCl2; C6 symmetry; 3.1 Å; lattices still intact after 10 mM EDTA or 10 mM EGTA for 2 h.

This passage reports stoichiometry N results from PMC12021427.

The substance “PS2 S-layer protein of Corynebacterium glutamicum 541 (ATCC-13058) (natural protein)” showed a stoichiometry N of 6.

The term stoichiometry N denotes the number of molecules, sites or subunits per partner or assembly.
